Experimental data from publication PMC12089419, “Synergistic regulation of DACH1 stability by acetylation and deubiquitination promotes colorectal cancer progression” (Cell Death & Disease, 2025).

Molecular target: T1, GST-USP7 (UniProt Q93009 1-1102)
T1 construct: USP7, cloned in pGEX-4T-1; also called GST-tagged USP7; source: plasmid in pGEX-4T-1
Experiment: pull-down; purified DACH1 incubated with GST or GST-USP7 conjugated with GSH-Sepharose, followed by Coomassie blue staining
Conditions: both partners purified

T1 sequence (Q93009 whole entry): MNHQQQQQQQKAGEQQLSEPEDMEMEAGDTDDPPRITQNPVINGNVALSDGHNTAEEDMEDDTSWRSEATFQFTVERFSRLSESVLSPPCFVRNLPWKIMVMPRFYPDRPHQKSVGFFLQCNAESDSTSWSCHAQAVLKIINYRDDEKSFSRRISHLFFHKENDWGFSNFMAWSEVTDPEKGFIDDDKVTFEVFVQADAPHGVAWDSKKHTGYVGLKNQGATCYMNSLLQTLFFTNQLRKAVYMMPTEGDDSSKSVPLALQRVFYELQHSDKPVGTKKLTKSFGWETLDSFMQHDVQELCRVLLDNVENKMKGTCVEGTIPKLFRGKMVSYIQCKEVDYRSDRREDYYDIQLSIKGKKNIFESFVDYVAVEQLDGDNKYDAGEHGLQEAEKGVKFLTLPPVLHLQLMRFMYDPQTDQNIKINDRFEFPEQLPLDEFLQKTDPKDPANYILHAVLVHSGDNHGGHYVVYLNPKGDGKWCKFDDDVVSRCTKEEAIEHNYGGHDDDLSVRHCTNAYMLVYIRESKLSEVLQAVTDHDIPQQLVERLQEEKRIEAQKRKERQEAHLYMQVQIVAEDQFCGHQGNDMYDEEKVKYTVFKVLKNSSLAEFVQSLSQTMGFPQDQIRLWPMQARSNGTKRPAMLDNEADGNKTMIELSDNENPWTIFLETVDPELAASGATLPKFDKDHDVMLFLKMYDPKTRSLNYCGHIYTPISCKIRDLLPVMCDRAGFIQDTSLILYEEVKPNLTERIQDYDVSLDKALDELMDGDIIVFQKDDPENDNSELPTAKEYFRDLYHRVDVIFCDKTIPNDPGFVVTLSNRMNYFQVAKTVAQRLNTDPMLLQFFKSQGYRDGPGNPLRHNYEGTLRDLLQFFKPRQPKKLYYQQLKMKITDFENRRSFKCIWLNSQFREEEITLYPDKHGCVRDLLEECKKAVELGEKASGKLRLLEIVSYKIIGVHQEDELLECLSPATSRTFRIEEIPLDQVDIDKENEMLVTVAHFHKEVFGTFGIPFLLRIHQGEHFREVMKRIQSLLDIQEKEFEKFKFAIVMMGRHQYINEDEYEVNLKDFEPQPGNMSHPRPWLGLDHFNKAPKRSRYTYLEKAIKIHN

B1: Myc-DACH1-FL (natural protein, human, UniProt Q9UI36 1-758, looked up)
chain: MAVPAALIPPTQLVPPQPPISTSASSSGTTTSTSSATSSPAPSIGPPASSGPTLFRPEPIASAAAAAATVTSTGGGGGGGGSGGGGGSSGNGGGGGGGGGGSNCNPNLAAASNGSGGGGGGISAGGGVASSTPINASTGSSSSSSSSSSSSSSSSSSSSSSSSCGPLPGKPVYSTPSPVENTPQNNECKMVDLRGAKVASFTVEGCELICLPQAFDLFLKHLVGGLHTVYTKLKRLEITPVVCNVEQVRILRGLGAIQPGVNRCKLISRKDFETLYNDCTNASSRPGRPPKRTQSVTSPENSHIMPHSVPGLMSPGIIPPTGLTAAAAAAAAATNAAIAEAMKVKKIKLEAMSNYHASNNQHGADSENGDMNSSVGSSDGSWDKETLPSSPSQGPQASITHPRMPGARSLPLSHPLNHLQQSHLLPNGLELPFMMMPHPLIPVSLPPASVTMAMSQMNHLSTIANMAAAAQVQSPPSRVETSVIKERVPDSPSPAPSLEEGRRPGSHPSSHRSSSVSSSPARTESSSDRIPVHQNGLSMNQMLMGLSPNVLPGPKEGDLAGHDMGHESKRMHIEKDETPLSTPTARDSLDKLSLTGHGQPLPPGFPSPFLFPDGLSSIETLLTNIQGLLKVAIDNARAQEKQVQLEKTELKMDFLRERELRETLEKQLAMEQKNRAIVQKRLKKEKKAKRKLQEALEFETKRREQAEQTLKQAASTDSLRVLNDSLTPEIEADRSGGRTDAERTIQDGRLYLKTTVMY
notes: DACH1, human, full length (FL), cloned in pcDNA3.1 or a lentiviral plasmid; the text calls it Myc-tagged DACH1; also called Myc-tagged DACH1; Myc-tagged FL DACH1; source: HEK293T or SW480, transfected, in lysate; HCT8, stably expressed, whole cell extracts
Q: Does B1 bind?
A: binds
